Tests used:
Assay in all cases: affinity purification with mass spectrometry
Nic96 = Nic96 (Saccharomyces cerevisiae, UniProt P34077)
Nup192 = Nup192 (Saccharomyces cerevisiae (strain ATCC …, UniProt P47054))
Pom152 = Pom152 (Saccharomyces cerevisiae (strain ATCC …, UniProt P39685))
Nup57 = Nup57 (Saccharomyces cerevisiae (strain ATCC …, UniProt P48837))
Nsp1 = Nsp1 (Saccharomyces cerevisiae (strain ATCC …, UniProt P14907))
Nup49 = Nup49 (Saccharomyces cerevisiae (strain ATCC …, UniProt Q02199))
Pom34-ZZ = Pom34-ZZ (Saccharomyces cerevisiae (strain ATCC …, UniProt Q12445))

Measured: binding result

Sequence of Nup192 (Saccharomyces cerevisiae (P47054 whole entry): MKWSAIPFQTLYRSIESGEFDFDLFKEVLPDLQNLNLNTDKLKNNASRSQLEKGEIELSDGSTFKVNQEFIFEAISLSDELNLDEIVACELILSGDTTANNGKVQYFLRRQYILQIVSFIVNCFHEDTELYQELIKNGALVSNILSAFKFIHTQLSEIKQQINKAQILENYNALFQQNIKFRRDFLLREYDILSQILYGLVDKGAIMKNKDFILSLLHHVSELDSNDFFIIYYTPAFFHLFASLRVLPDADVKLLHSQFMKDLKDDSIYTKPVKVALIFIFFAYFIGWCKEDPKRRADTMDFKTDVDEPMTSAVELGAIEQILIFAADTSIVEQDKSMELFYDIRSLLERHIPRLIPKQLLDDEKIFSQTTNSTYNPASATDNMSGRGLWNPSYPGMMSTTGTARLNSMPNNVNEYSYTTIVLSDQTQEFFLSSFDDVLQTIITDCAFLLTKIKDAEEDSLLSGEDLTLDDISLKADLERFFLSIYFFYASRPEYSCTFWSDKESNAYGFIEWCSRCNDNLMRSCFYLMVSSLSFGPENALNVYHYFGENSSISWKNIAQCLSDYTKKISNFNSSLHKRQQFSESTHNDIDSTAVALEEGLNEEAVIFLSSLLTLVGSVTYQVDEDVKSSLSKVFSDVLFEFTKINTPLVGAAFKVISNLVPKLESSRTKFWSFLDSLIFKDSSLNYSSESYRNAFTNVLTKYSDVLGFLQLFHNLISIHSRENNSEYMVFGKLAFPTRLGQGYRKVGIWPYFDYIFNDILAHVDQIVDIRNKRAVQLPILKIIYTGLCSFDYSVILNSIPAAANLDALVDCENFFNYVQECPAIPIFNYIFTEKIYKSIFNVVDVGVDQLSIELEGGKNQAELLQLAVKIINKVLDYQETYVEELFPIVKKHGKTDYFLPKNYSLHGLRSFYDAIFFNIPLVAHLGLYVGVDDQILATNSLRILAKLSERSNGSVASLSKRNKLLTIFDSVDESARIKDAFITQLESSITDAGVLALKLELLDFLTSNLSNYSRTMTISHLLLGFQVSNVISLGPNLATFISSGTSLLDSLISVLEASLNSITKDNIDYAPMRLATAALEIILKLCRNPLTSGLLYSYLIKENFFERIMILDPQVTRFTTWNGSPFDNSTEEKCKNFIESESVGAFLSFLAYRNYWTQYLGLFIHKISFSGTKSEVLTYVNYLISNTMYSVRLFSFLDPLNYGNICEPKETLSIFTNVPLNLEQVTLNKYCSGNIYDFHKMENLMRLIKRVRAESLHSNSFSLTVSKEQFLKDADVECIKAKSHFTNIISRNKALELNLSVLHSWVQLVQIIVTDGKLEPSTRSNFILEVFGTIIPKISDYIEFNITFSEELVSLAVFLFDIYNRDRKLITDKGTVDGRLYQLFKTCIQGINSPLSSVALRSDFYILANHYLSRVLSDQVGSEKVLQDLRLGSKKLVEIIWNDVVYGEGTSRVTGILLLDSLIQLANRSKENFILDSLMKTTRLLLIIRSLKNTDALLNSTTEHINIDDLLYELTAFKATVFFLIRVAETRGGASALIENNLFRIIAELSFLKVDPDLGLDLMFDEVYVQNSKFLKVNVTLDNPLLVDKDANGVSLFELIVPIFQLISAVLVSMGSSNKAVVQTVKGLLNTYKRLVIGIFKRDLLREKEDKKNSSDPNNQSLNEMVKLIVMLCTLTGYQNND
Sequence of Pom152 (Saccharomyces cerevisiae (P39685 whole entry): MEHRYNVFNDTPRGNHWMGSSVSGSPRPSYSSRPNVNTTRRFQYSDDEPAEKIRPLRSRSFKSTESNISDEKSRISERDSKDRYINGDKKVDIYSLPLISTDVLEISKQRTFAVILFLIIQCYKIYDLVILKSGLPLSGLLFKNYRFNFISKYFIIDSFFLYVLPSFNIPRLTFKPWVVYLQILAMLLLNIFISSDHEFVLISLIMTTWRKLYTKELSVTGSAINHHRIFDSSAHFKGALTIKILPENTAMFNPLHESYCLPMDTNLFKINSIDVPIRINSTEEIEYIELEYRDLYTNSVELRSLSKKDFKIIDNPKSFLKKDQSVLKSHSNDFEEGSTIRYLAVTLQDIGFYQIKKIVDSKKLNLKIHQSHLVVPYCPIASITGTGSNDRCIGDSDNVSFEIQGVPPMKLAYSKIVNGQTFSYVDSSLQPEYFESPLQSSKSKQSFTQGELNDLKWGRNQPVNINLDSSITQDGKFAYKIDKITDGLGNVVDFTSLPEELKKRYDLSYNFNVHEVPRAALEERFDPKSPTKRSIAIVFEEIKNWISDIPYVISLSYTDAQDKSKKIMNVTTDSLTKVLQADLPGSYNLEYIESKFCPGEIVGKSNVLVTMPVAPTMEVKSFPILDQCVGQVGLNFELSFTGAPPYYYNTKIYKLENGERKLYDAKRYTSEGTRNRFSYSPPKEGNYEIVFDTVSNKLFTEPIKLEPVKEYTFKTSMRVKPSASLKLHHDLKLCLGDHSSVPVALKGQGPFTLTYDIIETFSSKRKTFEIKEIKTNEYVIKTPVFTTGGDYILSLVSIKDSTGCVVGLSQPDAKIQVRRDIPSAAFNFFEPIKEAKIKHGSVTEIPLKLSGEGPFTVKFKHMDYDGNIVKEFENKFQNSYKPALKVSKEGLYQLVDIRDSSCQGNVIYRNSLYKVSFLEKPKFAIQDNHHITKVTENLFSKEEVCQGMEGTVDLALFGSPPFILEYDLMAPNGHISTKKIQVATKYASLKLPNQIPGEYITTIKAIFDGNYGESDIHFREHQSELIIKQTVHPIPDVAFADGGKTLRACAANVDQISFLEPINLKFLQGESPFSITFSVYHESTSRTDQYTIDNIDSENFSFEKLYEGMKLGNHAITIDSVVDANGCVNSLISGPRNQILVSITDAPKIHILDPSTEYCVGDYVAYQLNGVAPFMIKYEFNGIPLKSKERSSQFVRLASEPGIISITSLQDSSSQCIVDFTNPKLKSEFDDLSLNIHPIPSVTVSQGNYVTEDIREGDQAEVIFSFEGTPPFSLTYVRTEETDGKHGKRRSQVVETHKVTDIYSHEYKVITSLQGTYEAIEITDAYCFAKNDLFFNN
Sequence of Pom34-ZZ (Saccharomyces cerevisiae (Q12445 whole entry): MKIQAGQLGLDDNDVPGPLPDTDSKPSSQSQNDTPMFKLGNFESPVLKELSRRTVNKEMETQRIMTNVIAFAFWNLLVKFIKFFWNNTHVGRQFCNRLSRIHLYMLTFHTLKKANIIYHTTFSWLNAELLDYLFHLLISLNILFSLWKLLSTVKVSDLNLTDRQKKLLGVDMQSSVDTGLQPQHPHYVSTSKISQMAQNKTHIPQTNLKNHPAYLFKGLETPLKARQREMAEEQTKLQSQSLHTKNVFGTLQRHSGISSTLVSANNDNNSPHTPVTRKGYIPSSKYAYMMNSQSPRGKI
Sequence of Nup49 (Saccharomyces cerevisiae (Q02199 whole entry): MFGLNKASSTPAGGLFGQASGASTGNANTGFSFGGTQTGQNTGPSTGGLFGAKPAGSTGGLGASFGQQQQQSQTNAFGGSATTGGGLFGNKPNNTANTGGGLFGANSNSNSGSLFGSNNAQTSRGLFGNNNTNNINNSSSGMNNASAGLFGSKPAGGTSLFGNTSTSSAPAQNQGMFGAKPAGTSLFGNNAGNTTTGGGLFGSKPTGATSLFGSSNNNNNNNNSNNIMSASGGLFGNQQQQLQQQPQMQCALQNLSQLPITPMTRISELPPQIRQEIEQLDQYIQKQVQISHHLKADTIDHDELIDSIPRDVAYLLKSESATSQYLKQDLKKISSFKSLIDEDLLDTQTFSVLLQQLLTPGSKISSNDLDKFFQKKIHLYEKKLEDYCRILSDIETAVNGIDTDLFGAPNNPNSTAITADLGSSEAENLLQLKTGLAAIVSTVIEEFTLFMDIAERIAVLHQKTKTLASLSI
Sequence of Nup57 (Saccharomyces cerevisiae (P48837 whole entry): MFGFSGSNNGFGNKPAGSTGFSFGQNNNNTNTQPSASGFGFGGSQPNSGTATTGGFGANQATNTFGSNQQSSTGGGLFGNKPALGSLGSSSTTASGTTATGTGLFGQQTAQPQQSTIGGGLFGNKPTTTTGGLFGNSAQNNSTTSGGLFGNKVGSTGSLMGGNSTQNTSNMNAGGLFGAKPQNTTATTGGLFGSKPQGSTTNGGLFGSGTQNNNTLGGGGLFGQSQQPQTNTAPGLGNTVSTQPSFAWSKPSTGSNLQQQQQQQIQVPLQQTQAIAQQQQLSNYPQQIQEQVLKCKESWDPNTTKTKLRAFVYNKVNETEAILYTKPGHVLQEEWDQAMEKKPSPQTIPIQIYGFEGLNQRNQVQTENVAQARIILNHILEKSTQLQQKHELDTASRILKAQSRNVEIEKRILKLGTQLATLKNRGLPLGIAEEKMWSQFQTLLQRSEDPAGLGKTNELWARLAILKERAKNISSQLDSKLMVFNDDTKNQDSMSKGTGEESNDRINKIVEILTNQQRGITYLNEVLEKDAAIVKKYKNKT

B1: VHH[Nic96]-ZZ (VHH)
VHH: QVQLVETGGGLVQAGGSLRLSCATSGFNFRLRTMGWYRQAPGKERELVASITSGGSTDYADSVKGRFTISRDNAKNTISLEMNSLKPDDTAVYYCNIWAPTTAAITNWGQGTQVTVSS
not listed: Pom34-ZZ
binds: all other assays above

B2: VHH[Nic96] (as expressed in the Pom34-ZZ strain) (VHH)
VHH: QVQLVETGGGLVQAGGSLRLSCATSGFNFRLRTMGWYRQAPGKERELVASITSGGSTDYADSVKGRFTISRDNAKNTISLEMNSLKPDDTAVYYCNIWAPTTAAITNWGQGTQVTVSS
binds: Pom34-ZZ

— paper doi:10.1101/2025.07.30.667432 (bioRxiv, 2025)
